Measurements taken from the Human Domainome abundance scans (Beltran et al. 2025).
± gives the uncertainty stated by the source.

B1: E3 ubiquitin-protein ligase NEDD4, residues 836 to 881; numbered along this chain, P46934 (parent)
chain: EIEQGFLPKGWEVRHAPNGRPFFIDHNTKTTTWEDPRLKIPAHLRG

Variants of: B1
Assay: abundance fitness (aPCA) (normalised: wild type 0, dead -1); higher = more abundant; growth selection in yeast, the domain comes from the species named
Details: Homo sapiens

Variant | abundance fitness
T28K | -0.251 ± 0.042
D25V | -0.981 ± 0.061
R45W | -0.202 ± 0.078
R37C | -0.611 ± 0.064
W11E | -0.326 ± 0.044
F23W | -0.147 ± 0.049
I24A | -0.818 ± 0.14
T28G | -0.187 ± 0.041
A42E | 0.027 ± 0.058
P41Q | -0.32 ± 0.087
K9Y | -0.316 ± 0.037
G46D | -0.088 ± 0.16
A16V | -0.505 ± 0.066
E3A | -0.251 ± 0.057
G5F | -0.158 ± 0.064
R14I | -0.556 ± 0.094
D35E | -0.795 ± 0.11
H26K | -0.342 ± 0.087
I40A | 0.002 ± 0.043
T32A | -0.779 ± 0.16
P41Y | -0.607 ± 0.14
H15G | -0.508 ± 0.065
T31Q | -0.158 ± 0.13
T28P | -0.823 ± 0.066

Variant | abundance fitness
F22T | -0.536 ± 0.06
P41F | -0.57 ± 0.15
F23G | -0.566 ± 0.049
A42Q | 0.02 ± 0.046
E3D | -0.455 ± 0.11
P41K | -0.08 ± 0.066
I2P | -0.953 ± 0.16
P8G | -0.625 ± 0.067
A16L | -0.345 ± 0.1
P21C | -0.084 ± 0.06
A16K | -0.698 ± 0.23
A16M | -0.216 ± 0.11
R37L | -0.399 ± 0.076
R37K | -0.758 ± 0.11
H43Y | -0.041 ± 0.1
F22D | -0.35 ± 0.11
P8H | 0.162 ± 0.13
F6R | 0.149 ± 0.037
L38V | -0.051 ± 0.041
I40P | -0.335 ± 0.15
H43C | -0.22 ± 0.053
T30R | -0.2 ± 0.053
P41N | 0.005 ± 0.049
T31E | -0.44 ± 0.083

Variant | abundance fitness
E34Q | -0.345 ± 0.11
P41L | -0.469 ± 0.05
D25A | -0.848 ± 0.049
R37T | -0.256 ± 0.055
E1K | -0.095 ± 0.48
I2D | 0.035 ± 0.089
F22K | -0.702 ± 0.1
E3K | -0.096 ± 0.074
Q4F | 0.067 ± 0.074
A42D | -0.111 ± 0.04
K39W | -0.298 ± 0.038
R20E | -0.035 ± 0.055
P41T | -0.158 ± 0.078
F23H | -0.656 ± 0.12
F23L | -0.633 ± 0.059
K39I | -0.297 ± 0.038
K39V | -0.201 ± 0.045
H43G | -0.078 ± 0.046
W33N | -0.431 ± 0.055
T31V | -0.185 ± 0.047
D35S | -0.691 ± 0.067
D25M | -1.15 ± 0.25
D35P | -0.582 ± 0.12
P8N | -0.611 ± 0.063

Variant | abundance fitness
R20V | -0.105 ± 0.051
I40W | -0.055 ± 0.045
N27Y | -0.593 ± 0.047
L44D | 0.116 ± 0.065
I2S | -0.166 ± 0.067
T30V | -0.202 ± 0.039
P21L | -0.131 ± 0.036
P36E | -0.283 ± 0.11
G5S | -0.068 ± 0.042
E34A | -0.182 ± 0.054
H43F | -0.232 ± 0.055
I40H | -0.17 ± 0.084
A42C | -0.135 ± 0.047
T31L | -0.356 ± 0.035
F22Q | -0.239 ± 0.033
N18F | -0.75 ± 0.1
H43V | -0.052 ± 0.047
N27Q | -0.364 ± 0.036
I40Q | 0.085 ± 0.072
P21E | -0.149 ± 0.059
A42M | -0.181 ± 0.096
L44R | -0.221 ± 0.042
T30N | -0.566 ± 0.11
E34T | -0.37 ± 0.088

Variant | abundance fitness
K9M | -0.344 ± 0.06
T30P | -0.961 ± 0.19
P8T | -0.432 ± 0.12
I2W | -0.271 ± 0.1
T32S | -0.115 ± 0.05
L44F | -0.423 ± 0.069
F6K | 0.117 ± 0.052
I40L | -0.042 ± 0.053
L38W | -0.105 ± 0.062
G5W | -0.105 ± 0.057
H43R | -0.195 ± 0.037
H15C | 0.166 ± 0.064
N18A | -0.69 ± 0.091
F23A | -0.416 ± 0.088
G10C | -0.722 ± 0.059
R45K | -0.016 ± 0.059
R45C | 0.019 ± 0.067
V13E | 0.069 ± 0.062
K29P | -0.889 ± 0.046
P8K | 0.223 ± 0.15
R37V | -0.597 ± 0.044
E12T | -0.274 ± 0.059
H26I | -0.078 ± 0.1
F6D | 0.241 ± 0.049

Variant | abundance fitness
P21R | -0.109 ± 0.038
H26T | -0.357 ± 0.079
E3C | -0.141 ± 0.078
G19A | -0.734 ± 0.1
N27K | -0.168 ± 0.045
R20G | -0.917 ± 0.12
G5Q | -0.299 ± 0.089
T31M | -0.234 ± 0.052
R14N | -0.783 ± 0.17
T32M | -0.705 ± 0.1
H43E | 0.105 ± 0.058
I40N | -0.154 ± 0.11
T28A | -0.383 ± 0.055
L44Q | 0.033 ± 0.063
L38S | -0.019 ± 0.053
K29Q | -0.063 ± 0.042
D25H | -0.394 ± 0.16
R20N | -0.271 ± 0.043
H26G | -0.501 ± 0.036
E1G | -0.27 ± 0.046
P21K | 0.027 ± 0.051
L38E | -0.093 ± 0.068
D25Q | -0.951 ± 0.25
H15D | -0.031 ± 0.092

Variant | abundance fitness
P17I | -0.012 ± 0.15
W33K | -0.462 ± 0.09
G5C | -0.21 ± 0.043
E34V | -0.169 ± 0.047
P21I | 0.033 ± 0.061
E12R | -0.793 ± 0.067
E1D | -0.219 ± 0.14
R20A | 0.016 ± 0.086
E12L | -0.942 ± 0.094
I2F | -0.129 ± 0.095
A42L | -0.147 ± 0.042
T31W | -0.311 ± 0.071
N27M | -0.409 ± 0.074
T31F | -0.42 ± 0.085
G10P | -0.829 ± 0.2
D35I | -0.895 ± 0.14
R45F | -0.174 ± 0.079
Q4E | 0.12 ± 0.077
T30I | -0.056 ± 0.065
K9A | -0.124 ± 0.035
K9Q | -0.078 ± 0.047
H15Y | -0.147 ± 0.071
I24P | -0.929 ± 0.19
